Measurements published in patent US20090186415A1, “METHOD FOR PRODUCTION OF CYTOCHROME P450 WITH N-TERMINAL TRUNCATED P450 REDUCTASE” (priority 2006, published 2009).

Assays:
[1] = system: human NADPH P450 reductase; experiment: MTT-based cytochrome P450 reductase assay, hRD variants in yeast microsomes and cytosolic fractions; format: biochemical; details: for microsome bound reductase activity: microsomes; for microsome bound reductase activity / cytosolic reductase activity: LEU2 locus of W303B; for cytosolic reductase activity: soluble cytosolic fraction
Protocol: Microsomes from the different yeast strains were prepared as described in Example 1.15. About 100 μg of microsomes, as measured by the Bio-Rad Bradford assay, were used and the increase in MTT reductase activity was followed over a time period of 400 seconds.
The different yeast strains were grown up in YPGE medium as described in Example 1.15. The cells were harvested and centrifuged to a pellet. 10% of cell pellets were re-suspended in 1 ml of buffer B (10 mM Tris-Cl pH7.5, 2 M Sorbitol, 0.1 mM EDTA pH8.0, 1 mM Pefabloc, 0.1 mM DTT) and re-suspended cells were treated with lyticase (3-5 units/O.D. of cells; 2200 units/mg; Sigma) for about an hour. The yeast cell wall was enzymatically removed using lyticase, the pellets were centrifuged and washed twice with ice cold PBS, finally re-suspended in 1 ml PBS. About 0.5 ml of glass beads were added to the suspension and the cells were vortexed three times with a 5 min interval on ice after each vortexing. The cells lysates were directly used for the MTT-based reductase assay. Equal amount of cells lysates (100 μg, as measured by the Bio-Rad Bradford assay) were used and the increase in MTT reductase activity was followed, as above, over a time period of 400 seconds.
The enzyme NADPH-cytochrome P450 reductase mediates the transfer of electrons from NADPH to cytochrome P450, other microsomal proteins and cytochrome c. It also catalyzes the reduction of many drugs and other compounds such as potassium ferricyanide, 2,6-dichloroindopheonl, 1,1-diphenyl-2-picrylhydrazyl (DPPH), and mitomycin c. Tetrazolium salts are used extensively in cell proliferation and cytotoxicity assays, enzyme assays, histochemical procedures and bacteriological screening. […] The compound 3-(4,5-dimethylthiazol-2-yl)-2,5-diphenyltetrazolium bromide (MTT) is a monotetrazolium salt. The reduction of MTT is one of the most frequently used methods for measuring cell proliferation and cytotoxiciy. Reduction of MTT by P450 reductase has been assessed as a method for monitoring yeast produced recombinant P450 reductase activity and the protocol was developed on the procedure published by Yim S-K, et al (Yim S-K., Y. C.-H. Ahn T., Hung H—C and Pan J-G. A continuous Spectrophotometric assay for NADPH-cytochrome P450 reductase activity using 3-(4,5 Dimethylthiazol-2-yl)-2,5-diphenyltetrazolium Bromide. Journal of Biology and Molecular Biology 38: 366-369, 2005). The principal advantage of this substance is that the reduction of MTT can be assayed directly in the reaction medium by a continuous spectrophotometirc method. The electrons released from NADPH by P450 reductase are transferred to MTT, and then the amounts of reduced MTT is assessed spectrophotometrically by measuring the increase in A610 values that is due to the formation of blue formazan. The extinction coefficient of MTT is 11.3 mM^−1 cm^−1. This method offers the advantages of short analysis time with the use of a relatively cheap commercial substrate. The classical assay uses recombinant cytochrome c as a substrate.
Disposable cuvettes were used for this experiment. 850 μl of potassium phosphate buffer was added to a cuvette. […] The cuvette was quickly placed into the spectrophotometer together with the blank cuvette and its contents (that contained all components as in the other test cuvette but not the microsomes or cell supernatant) and the increase in the values at 610 nm was measured for a time period of 400 seconds. […]

human CYP1B1 = target: T1, human CYP1B1 (Homo sapiens, UniProt Q16678); experiment: Determination of P450 amounts via CO-difference spectra (CYP1B1 in yeast microsomes); details: strains JL20 and W303B with only endogenous yeast P450 reductase, average of 3 observations
T1 construct: made in house; host or cells: Saccharomyces cerevisiae JL20 / W303B and derived strains; microsomes
T1 sequence (Q16678 with tags, fused parts or gaps): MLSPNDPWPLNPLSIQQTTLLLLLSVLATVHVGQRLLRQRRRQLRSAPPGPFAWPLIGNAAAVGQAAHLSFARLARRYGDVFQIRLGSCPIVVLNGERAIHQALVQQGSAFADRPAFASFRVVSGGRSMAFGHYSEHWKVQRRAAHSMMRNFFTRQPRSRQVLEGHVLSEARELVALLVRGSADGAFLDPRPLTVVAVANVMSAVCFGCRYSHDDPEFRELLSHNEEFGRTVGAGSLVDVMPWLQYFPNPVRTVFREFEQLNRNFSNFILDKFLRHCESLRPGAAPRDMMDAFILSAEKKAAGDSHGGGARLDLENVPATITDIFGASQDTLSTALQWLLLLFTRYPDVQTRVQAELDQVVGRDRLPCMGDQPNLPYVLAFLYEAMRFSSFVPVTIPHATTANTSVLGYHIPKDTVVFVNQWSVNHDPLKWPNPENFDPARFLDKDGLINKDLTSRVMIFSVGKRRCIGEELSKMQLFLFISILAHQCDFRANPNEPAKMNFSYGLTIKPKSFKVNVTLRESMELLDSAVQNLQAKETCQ
Protocol: Determination of P450 amounts via CO-difference spectra: Difference spectra of microsomal preparations were measured in a spectrophotometer (Lambda 16, Perkin Elmer) using plastic disposable cuvettes. 850 μl of a solution containing 100 mM potassium phosphate and 20% glycerol (pH7.5) was added to the cuvette, and left for one minute. Then a ‘few grains’ of sodium hydrosulfite was added, mixed gently to prevent any bubble forming in the cuvette and left for another minute. 150 μl of mirosomes were added into the cuvette and the whole suspension was mixed gently. Two cuvettes (one containing sodium hydrosulphite without microsome and the other with microsome) were prepared and a baseline of light absorption of the buffer and microsome mixture was recorded in the dual-beam spectrophotometer from 400 nm to 500 nm. Carbon monoxide was bubbled slowly into one sample cuvette for about one minute, 1 bubble/second. Light absorption was recorded again from 400 nm to 500 nm. The concentration of cytochrome P450 in the cuvette was calculated from the absorption change at 450 nm relative to the absorbance change at 490 nm, using the formula below: […]

B1: ΔN24hRD: human P450 reductase variant lacking the charged N-terminal 24 amino acids (SEQ ID NO: 26) (protein)
chain: MTDMILFSLIVGLLTYWFLFRKKKEEVPEFTKIQTLTSSVRESSFVEKMKKTGRNIIVFYGSQTGTAEEFANRLSKDAHRYGMRGMSADPEEYDLADLSSLPEIDNALVVFCMATYGEGDPTDNAQDFYDWLQETDVDLSGVKFAVFGLGNKTYEHFNAMGKYVDKRLEQLGAQRIFELGLGDDDGNLEEDFITWREQFWPAVCEHFGVEATGEESSIRQYELVVHTDIDAAKVYMGEMGRLKSYENQKPPFDAKNPFLAAVTTNRKLNQGTERHLMHLELDISDSKIRYESGDHVAVYPANDSALVNQLGKILGADLDVVMSLNNLDEESNKKHPFPCPTSYRTALTYYLDITNPPRTNVLYELAQYASEPSEQELLRKMASSSGEGKELYLSWVVEARRHILAILQDCPSLRPPIDHLCELLPRLQARYYSIASSSKVHPNSVHICAVVVEYETKAGRINKGVATNWLRAKEPVGENGGRALVPMFVRKSQLRLPFKATTPVIMVGPGTGWHPFIGFIQERAWLRQQGKEVGETLLYYGCRRSDEDYLYREELAQFHRDGALTQLNVAFSREQSHKVYVQHLLKQDREHLWKLIEGGAHIYVCGDARNMARDVQNTFYDIVAELGAMEHAQAVDYIKKLMTKGRYSLDVWS
modifications: /note = delta-N24hRD human P450 reductase
Question: B1 was tested. Which “microsome bound reductase activity” value [1] did it give?
Answer: minimal

Question: And the cytosolic reductase activity [1]?
Answer: most of the activity of ΔN24hRD exists in the soluble cytosolic part of the cell

B2: ΔN24hRD-cmyc: human P450 reductase lacking N-terminal 24 amino acids, with C-terminal c-myc epitope tag (SEQ ID NO: 27) (protein)
chain: MTDMILFSLIVGLLTYWFLFRKKKEEVPEFTKIQTLTSSVRESSFVEKMKKTGRNIIVFYGSQTGTAEEFANRLSKDAHRYGMRGMSADPEEYDLADLSSLPEIDNALVVFCMATYGEGDPTDNAQDFYDWLQETDVDLSGVKFAVFGLGNKTYEHFNAMGKYVDKRLEQLGAQRIFELGLGDDDGNLEEDFITWREQFWPAVCEHFGVEATGEESSIRQYELVVHTDIDAAKVYMGEMGRLKSYENQKPPFDAKNPFLAAVTTNRKLNQGTERHLMHLELDISDSKIRYESGDHVAVYPANDSALVNQLGKILGADLDVVMSLNNLDEESNKKHPFPCPTSYRTALTYYLDITNPPRTNVLYELAQYASEPSEQELLRKMASSSGEGKELYLSWVVEARRHILAILQDCPSLRPPIDHLCELLPRLQARYYSIASSSKVHPNSVHICAVVVEYETKAGRINKGVATNWLRAKEPVGENGGRALVPMFVRKSQLRLPFKATTPVIMVGPGTGWHPFIGFIQERAWLRQQGKEVGETLLYYGCRRSDEDYLYREELAQFHRDGALTQLNVAFSREQSHKVYVQHLLKQDREHLWKLIEGGAHIYVCGDARNMARDVQNTFYDIVAELGAMEHAQAVDYIKKLMTKGRYSLDVWSSSEQKLISEEDLNGSRL
modifications: C-terminal c-myc tag; /note = delta-N24hRD-cmyc tag human P450 reductase
Question: Which results are given for B2?
Answer: P450 reductase activity (MTT reduction) ([1]; microsomal and soluble (cytosolic) fractions, hRD variants in W303B): much more potent in reductase activity than ΔN24hRD; microsome bound reductase activity [1]: superior in its reductase activity than the wild type full-length protein; cytosolic reductase activity [1]: also higher

B3: 675 bp GAL1p: truncated 675 bp yeast GAL1 promoter (SEQ ID No. 2) (nucleic acid)
DNA: CTTGAATTTTCAAAAATTCTTACTTTTTTTTTGGATGGACGCAAAGAAGTTTAATAATCATATTACATGGCATTACCACCATATACATATCCATATACATATCCATATCTAATCTTACTTATATGTTGTGGAAATGTAAAGAGCCCCATTATCTTAGCCTAAAAAAACCTTCTCTTTGGAACTTTCAGTAATACGCTTAACTGCTCATTGCTATATTGAAGTACGGATTAGAAGCCGCCGAGCGGGTGACAGCCCTCCGAAGGAAGACTCTCCTCCGTGCGTCCTCGTCTTCACCGGTCGCGTTCCTGAAACGCAGATGTGCCTCGCGCCGCACTGCTCCGAACAATAAAGATTCTACAATACTAGCTTTTATGGTTATGAAGAGGAAAAATTGGCAGTAACCTGGCCCCACAAACCTTCAAATGAACGAATCAAATTAACAACCATAGGATGATAATGCGATTAGTTTTTTAGCCTTATTTCTGGGGTAATTAATCAGCGAAGCGATGATTTTTGATCTATTAACAGATATATAAATGCAAAAACTGCATAACCACTTTAACTAATACTTTCAACATTTTCGGTTTGTATTACTTCTTATTCAAATGTAATAAAAGTATCAACAAAAAATTGTTAATATACCTCTATACTTTAACGTCAAGGAGAAAAAACCCC
modifications: /note = Positive strand of the 675 bp GAL1 promoter
Question: For B3, which “Expression of CYP1B1 (amounts of P450 produced) from GAL promoter variants” value (human CYP1B1) is on record?
Answer: the best

Question: And the “Expression of CYP1B1 (amounts of P450 produced) from GAL promoter variants” value (human CYP1B1; listed as 675 bp GAL1 promoter)?
Answer: the best expression
